The source of these data is article PMC2943577.

Holding throughout (assay): tandem affinity purification with Western blot
On the technique in general: A western blot detects proteins with antibodies after separation by electrophoresis.

The target of assay [1] is TAP-tagged Spt7 (S. cerevisiae) (UniProt P35177).
Assay [2] has as its target TAP-tagged Esa1 (S. cerevisiae) (UniProt Q08649).
The target in assay [3] is TAP-tagged Ada2 (S. cerevisiae) (UniProt Q02336).
UniProt Q02336, sequence (Q02336 whole entry): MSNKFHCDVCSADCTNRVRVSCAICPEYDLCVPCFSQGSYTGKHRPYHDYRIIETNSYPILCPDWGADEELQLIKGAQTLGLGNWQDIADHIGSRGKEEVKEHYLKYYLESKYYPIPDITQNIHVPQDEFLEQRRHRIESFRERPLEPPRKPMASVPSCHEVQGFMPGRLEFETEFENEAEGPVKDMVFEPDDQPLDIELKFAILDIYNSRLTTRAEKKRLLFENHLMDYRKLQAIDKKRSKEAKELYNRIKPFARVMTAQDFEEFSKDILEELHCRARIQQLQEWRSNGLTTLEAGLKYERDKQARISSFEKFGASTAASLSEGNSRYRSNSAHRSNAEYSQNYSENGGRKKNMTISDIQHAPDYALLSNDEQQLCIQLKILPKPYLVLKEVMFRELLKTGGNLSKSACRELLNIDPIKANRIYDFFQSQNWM

UniProt Q08649, sequence (Q08649 whole entry): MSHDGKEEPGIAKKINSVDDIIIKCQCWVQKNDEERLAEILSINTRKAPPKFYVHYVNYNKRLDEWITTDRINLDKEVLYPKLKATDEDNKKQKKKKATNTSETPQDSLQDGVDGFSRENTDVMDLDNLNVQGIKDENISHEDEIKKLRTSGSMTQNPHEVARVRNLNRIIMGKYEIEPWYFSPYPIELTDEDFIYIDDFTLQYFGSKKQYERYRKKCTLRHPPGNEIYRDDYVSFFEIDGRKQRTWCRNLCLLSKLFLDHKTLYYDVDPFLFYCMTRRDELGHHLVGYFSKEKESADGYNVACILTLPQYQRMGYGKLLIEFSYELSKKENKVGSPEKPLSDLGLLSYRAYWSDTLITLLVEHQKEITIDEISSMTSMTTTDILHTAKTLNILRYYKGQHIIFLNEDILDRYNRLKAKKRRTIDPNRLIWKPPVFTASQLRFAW
UniProt P35177, sequence (P35177 whole entry): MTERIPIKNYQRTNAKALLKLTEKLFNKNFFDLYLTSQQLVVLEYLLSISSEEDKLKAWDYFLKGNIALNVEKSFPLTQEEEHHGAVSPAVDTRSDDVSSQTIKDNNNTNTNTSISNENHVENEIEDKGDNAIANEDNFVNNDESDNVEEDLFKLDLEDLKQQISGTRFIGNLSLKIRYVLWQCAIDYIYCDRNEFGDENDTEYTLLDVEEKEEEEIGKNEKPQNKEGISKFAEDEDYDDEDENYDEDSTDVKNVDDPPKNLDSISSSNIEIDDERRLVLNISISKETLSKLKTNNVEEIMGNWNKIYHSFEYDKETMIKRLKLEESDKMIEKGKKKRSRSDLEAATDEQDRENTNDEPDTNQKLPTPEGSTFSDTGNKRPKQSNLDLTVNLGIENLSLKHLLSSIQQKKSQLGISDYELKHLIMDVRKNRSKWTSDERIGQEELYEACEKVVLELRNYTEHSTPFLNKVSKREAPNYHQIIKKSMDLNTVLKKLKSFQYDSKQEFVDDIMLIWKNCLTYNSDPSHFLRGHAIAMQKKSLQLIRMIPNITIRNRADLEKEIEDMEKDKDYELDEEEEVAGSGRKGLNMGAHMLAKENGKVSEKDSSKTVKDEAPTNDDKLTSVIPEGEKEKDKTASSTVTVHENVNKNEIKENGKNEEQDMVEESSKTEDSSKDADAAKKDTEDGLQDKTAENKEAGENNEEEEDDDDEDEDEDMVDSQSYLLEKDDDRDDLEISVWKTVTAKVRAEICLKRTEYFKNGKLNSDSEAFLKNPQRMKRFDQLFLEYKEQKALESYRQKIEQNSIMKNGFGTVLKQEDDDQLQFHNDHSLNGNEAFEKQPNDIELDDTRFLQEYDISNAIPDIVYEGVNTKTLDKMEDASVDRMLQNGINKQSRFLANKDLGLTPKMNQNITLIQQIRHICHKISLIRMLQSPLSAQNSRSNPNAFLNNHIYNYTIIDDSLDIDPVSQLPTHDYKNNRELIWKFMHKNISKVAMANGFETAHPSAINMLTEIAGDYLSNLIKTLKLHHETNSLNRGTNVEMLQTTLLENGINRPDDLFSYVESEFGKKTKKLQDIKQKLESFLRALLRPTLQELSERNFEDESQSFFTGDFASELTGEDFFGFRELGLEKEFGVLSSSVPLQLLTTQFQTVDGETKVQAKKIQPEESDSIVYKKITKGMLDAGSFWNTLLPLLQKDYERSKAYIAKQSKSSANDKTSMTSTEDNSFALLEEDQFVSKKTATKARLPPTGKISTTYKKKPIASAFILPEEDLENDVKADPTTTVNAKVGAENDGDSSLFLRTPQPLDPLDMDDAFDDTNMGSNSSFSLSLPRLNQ

For the substance myc9-Tra1-G3745, P38811 1-3744, the amount co-purifying, percent of that found for wild-type Tra1 in assay [1] and in assay [2] was < 5% throughout. In addition, the interaction against wild-type Tra1, percent (reduced to or by is not clear) in assay [3] was found to be 70%.
